Reference: US20040028672

System: LL-37

Pseudomonas aeruginosa elastase
degradation of LL-37 (SDS-PAGE) and loss of bactericidal activity against E. faecalis: LL-37 is degraded and inactivated by P. aeruginosa elastase
